Assay results published in patent publication US20220204587A1.
Blank lines part the entries; values can stand above or below the binder they belong to.

What was measured:
Experiment in all cases: cell-based or functional assay
[1] = target: TGF-β1 (UniProt P01137)
[2] = target: T1, TGF-β2 (UniProt P61812)
T1 sequence (looked up): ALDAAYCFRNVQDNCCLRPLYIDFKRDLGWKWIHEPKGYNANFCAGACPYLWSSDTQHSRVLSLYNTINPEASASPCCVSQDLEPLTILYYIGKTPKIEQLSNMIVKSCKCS

[3] = target: TGF-β3 (UniProt P10600)
Sequence of TGF-β3 (P10600 301-412 limits assumed): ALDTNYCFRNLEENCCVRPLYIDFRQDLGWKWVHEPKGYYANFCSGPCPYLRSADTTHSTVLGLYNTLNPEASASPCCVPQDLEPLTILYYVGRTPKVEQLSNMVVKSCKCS

Sequence of TGF-β1 (P01137 279-390 limits assumed): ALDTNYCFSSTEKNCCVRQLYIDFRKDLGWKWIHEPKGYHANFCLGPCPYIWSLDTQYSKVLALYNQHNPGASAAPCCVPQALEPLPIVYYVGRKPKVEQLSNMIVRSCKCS

IC50 (nM), neutralization of TGF-β1-induced IL-11 release by A549 cells [1]: 0.00278 nM
B1: T22d35-Fc-IgG2-v2 (CC) (Fc fusion)
chain: IPPHVQKSVNNDMIVTDNNGAVKFPQLCKFCDVRFSTCDNQKSCMSNCSITSICEKPQEVCVAVWRKNDENITLETVCHDPKLPYHDFILEDAASPKCIMKEKKKPGETFFMCSCSSDECNDNIIFSEEYNTSNPDIPPHVQKSVNNDMIVTDNNGAVKFPQLCKFCDVRFSTCDNQKSCMSNCSITSICEKPQEVCVAVWRKNDENITLETVCHDPKLPYHDFILEDAASPKCIMKEKKKPGETFFMCSCSSDECNDNIIFSEEYNTSNPDVECPPCPAPPVAGPSVFLFPPKPKDTLMISRTPEVTCVVVDVSHEDPEVQFNWYVDGVEVHNAKTKPREEQFNSTFRVVSVLTVVHQDWLNGKEYKCKVSNKGLPAPIEKTISKTKGQPREPQVYTLPPSREEMTKNQVSLTCLVKGFYPSDISVEWESNGQPENNYKTTPPMLDSDGSFFLYSKLTVDKSRWQQGNVFSCSVMHEALHNHYTQKSLSLSPG

IC50 (nM), neutralization of TGF-β1-induced IL-11 release by A549 cells [1]: 0.00286 nM
IC50 (nM), neutralization of TGF-β-induced IL-11 release by A549 cells [1]: 0.00335 nM
fold better neutralization potency than T2m-Fc (A549 IL-11 release assay) [1]: 615 fold
fold better neutralization potency than T22d35 (A549 IL-11 release assay) [1]: 970 fold
IC50 (nM), neutralization of TGF-β-induced IL-11 release by A549 cells [2]: 10.6 nM
IC50 (nM), neutralization of TGF-β-induced IL-11 release by A549 cells [3]: 0.00391 nM
fold better neutralization potency than T2m-Fc (A549 IL-11 release assay) [3]: 24 fold
fold better neutralization potency than T22d35 (A549 IL-11 release assay) [3]: 240 fold
B2: T22d35-Fc fusion protein (TβRII-ECD doublet fused to the N-terminus of a human IgG2 Fc, hinge …) (Fc fusion)
chain: IPPHVQKSVNNDMIVTDNNGAVKFPQLCKFCDVRFSTCDNQKSCMSNCSITSICEKPQEVCVAVWRKNDENITLETVCHDPKLPYHDFILEDAASPKCIMKEKKKPGETFFMCSCSSDECNDNIIFSEEYNTSNPDIPPHVQKSVNNDMIVTDNNGAVKFPQLCKFCDVRFSTCDNQKSCMSNCSITSICEKPQEVCVAVWRKNDENITLETVCHDPKLPYHDFILEDAASPKCIMKEKKKPGETFFMCSCSSDECNDNIIFSEEYNTSNPDERKCCVECPPCPAPPVAGPSVFLFPPKPKDTLMISRTPEVTCVVVDVSHEDPEVQFNWYVDGVEVHNAKTKPREEQFNSTFRVVSVLTVVHQDWLNGKEYKCKVSNKGLPAPIEKTISKTKGQPREPQVYTLPPSREEMTKNQVSLTCLVKGFYPSDISVEWESNGQPENNYKTTPPMLDSDGSFFLYSKLTVDKSRWQQGNVFSCSVMHEALHNHYTQKSLSLSPG
